Results published in patent US7939631B2, “APO-2 receptor polypeptides” (Genentech, Inc., priority 1997, dated 2011).
Square brackets hold non-standard residues; d marks the D form. Peptide text beside a SMILES is read from it. Nle = CCCC[C@H](N)C(=O)O

Assays:
[1] = test system: HeLa cells transfected with Apo-2; assay type: cell-based, human
HeLa cells = assay type: cell-based, human; details: 5 hour
Apo-2L [2] = target: T1, Apo-2L (Homo sapiens, UniProt P50591); assay: Co-precipitation (immunoprecipitation) assay of Apo-2 ECD-Flag with His-tagged Apo-2L; assay type: binding; details: 293 cell supernatant with Apo-2 ECD-Flag, 5 μg poly-histidine-tagged soluble Apo-2L; FIG. 3
T1 construct: poly-histidine; made in house
Experimental: The samples were subjected to immunoprecipitation using 25 μl anti-Flag conjugated agarose beads (Sigma) or Nickel-conjugated agarose beads (Qiagen). After a 1.5 hour incubation at 4° C., the beads were spun down and washed four times in phosphate buffered saline (PBS). […] The precipitated proteins were released by boiling the beads for 5 minutes in SDS-PAGE buffer, resolved by electrophoresis on 12% polyacrylamide gels, and then detected by immunoblot with anti-Apo-2L or anti-Flag antibody (2 μg/ml) as described in Marsters et al., J. Biol. Chem., (1997).
Target sequence in this assay (P50591 39-281 limits assumed): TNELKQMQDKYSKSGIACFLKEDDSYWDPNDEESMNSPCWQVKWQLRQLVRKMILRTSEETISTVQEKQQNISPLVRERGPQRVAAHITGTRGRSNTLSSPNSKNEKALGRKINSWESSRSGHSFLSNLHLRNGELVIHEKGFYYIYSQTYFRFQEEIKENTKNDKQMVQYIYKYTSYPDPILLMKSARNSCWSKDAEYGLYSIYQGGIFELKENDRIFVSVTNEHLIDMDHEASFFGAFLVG

Fas/Apo-1 ligand = target: T2, Fas/Apo-1 ligand (Homo sapiens, UniProt P48023); assay: BIACORE analysis of purified Apo-2 ECD; assay type: binding
T2 construct: purchased Alexis Biochemicals
T2 sequence (P48023 103-281 limits assumed): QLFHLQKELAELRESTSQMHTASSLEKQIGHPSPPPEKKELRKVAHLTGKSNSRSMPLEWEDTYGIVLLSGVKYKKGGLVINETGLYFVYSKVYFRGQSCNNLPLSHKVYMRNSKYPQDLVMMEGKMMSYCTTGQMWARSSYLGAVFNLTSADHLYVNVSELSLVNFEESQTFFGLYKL
Excerpt: (§1) The binding interaction was further analyzed by purifying Apo-2 ECD from the transfected 293 cell supernatants with anti-Flag beads (see Example 2) and then analyzing the samples on a BIACORE™ instrument.

TNF-alpha = TNF-alpha (Homo sapiens, UniProt P01375); assay: BIACORE analysis of purified Apo-2 ECD; assay type: binding
Excerpt: as §1

lymphotoxin-alpha = target: T3, lymphotoxin-alpha (Homo sapiens, UniProt P01374); assay: BIACORE analysis of purified Apo-2 ECD; assay type: binding
T3 sequence (P01374 35-205): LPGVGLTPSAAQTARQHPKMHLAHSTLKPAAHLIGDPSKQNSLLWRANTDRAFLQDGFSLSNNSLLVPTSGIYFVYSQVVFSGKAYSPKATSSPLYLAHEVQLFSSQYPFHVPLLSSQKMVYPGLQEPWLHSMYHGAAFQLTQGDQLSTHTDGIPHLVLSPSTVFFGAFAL
Excerpt: as §1

Apo-2L [3] = target: T1, Apo-2L; assay: Inhibition of Apo-2L activity by soluble Apo-2 ECD, apoptosis by FACS; assay type: cell-based; details: Apo-2L 0.5 μg/ml pre-incubated 1 hour; Apo-2 ECD 5 μg/ml with anti-Flag antibody 1 μg/ml; FIG. 4D
Experimental: After a 5 hour incubation, the cells were analyzed for apoptosis by FACS (as above) (FIG. 4D).
Target sequence in this assay (P50591 114-281 limits assumed): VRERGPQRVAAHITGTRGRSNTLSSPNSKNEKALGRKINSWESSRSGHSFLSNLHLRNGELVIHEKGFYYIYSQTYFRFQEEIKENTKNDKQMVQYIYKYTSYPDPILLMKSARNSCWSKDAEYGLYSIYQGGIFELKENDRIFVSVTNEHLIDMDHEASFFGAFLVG

Chain of TNF-alpha (P01375 77-233 limits assumed): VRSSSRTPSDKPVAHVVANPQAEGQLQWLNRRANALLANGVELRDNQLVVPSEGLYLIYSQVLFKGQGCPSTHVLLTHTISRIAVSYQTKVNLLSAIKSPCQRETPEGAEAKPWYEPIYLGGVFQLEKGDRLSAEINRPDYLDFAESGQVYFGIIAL

Compound: z-VAD-fmk
- effect on apoptosis induction by Apo-2 [1]: blocked apoptosis induction by Apo-2

Compound: cyclohexamide
- effect on level of Apo-2L-induced apoptosis (HeLa cells): increased the level of Apo-2L-induced apoptosis

Compound: DEVD-fmk
- effect on apoptosis induction by Apo-2 [1]: blocked apoptosis induction by Apo-2

Compound: CCCC[C@@H](C=O)NC(=O)[C@H](CC(C)C)NC(=O)[C@H](CC(C)C)NC(C)=O [ALLN, N-acetyl-Leu-Leu-norleucinal] (Ac-Leu-Leu-[Nle]-aldehyde)
- effect on level of Apo-2L-induced apoptosis (HeLa cells): increased the level of Apo-2L-induced apoptosis

Compound: Apo-2 ECD: Soluble Apo-2 extracellular domain (amino acid residues 1-184 of FIG. 1) fused to a C-terminal Flag epitope tag
- complex formation with Apo-2L by co-precipitation (Apo-2L [2]): can associate with each other
- binding to Fas/Apo-1 ligand (Fas/Apo-1 ligand): not capable of binding
- binding to TNF-alpha (TNF-alpha): not capable of binding
- binding to lymphotoxin-alpha (lymphotoxin-alpha): not capable of binding
- blocking of Apo-2L action (apoptosis in HeLa cells) (Apo-2L [3]): capable of blocking Apo-2L action
